The target of the series is T1, P220 MMP9-cleavable peptide, Biotin-GGGGGGGGGGPLGVRGKGGC
T1 chain: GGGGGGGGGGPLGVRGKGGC

B1: MMP7 (Active, Human, Recombinant, E. coli, 444270, Merck Millipore) (protein)
chain: YSLFPNSPKWTSKVVTYRIVSYTRDLPHITVDRLVSKALNMWGKEIPLHFRKVVWGTADIMIGFARGAHGDSYPFDGPGNTLAHAFAPGTGLGGDAHFDEDERWTDGSSLGINFLYAATHELGHSLGMGHSSDPNAVMYPTYGNGDPQNFKLSQDDIKGIQKLYGKRSNSRKK
For B1, the “% Cleavage (free AuNC fraction: 7-12 mL), gel filtration chromatography with catalytic activity readout; AuNC-P220-NAv + MMP7/9/13 (12 h)” value is given as “MMP7: 12.1%”.
